Numbering of substitutions follows the chain as printed.
T1: LIN7B, Q9HAP6
T1 sequence (Q9HAP6 88-185, limits assumed, looked up): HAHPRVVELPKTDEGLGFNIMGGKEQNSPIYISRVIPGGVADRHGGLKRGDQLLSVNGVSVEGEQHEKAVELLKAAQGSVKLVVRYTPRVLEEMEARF

T2: PDZD2_2, O15018
T2 sequence (O15018 329-429, limits assumed, looked up): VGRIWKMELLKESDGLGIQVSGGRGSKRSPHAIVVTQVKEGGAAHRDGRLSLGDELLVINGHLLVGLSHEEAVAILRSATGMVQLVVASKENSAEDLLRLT

T3: PDZRN3_1, Q9UPQ7
T3 sequence (Q9UPQ7 244-349, limits assumed, looked up): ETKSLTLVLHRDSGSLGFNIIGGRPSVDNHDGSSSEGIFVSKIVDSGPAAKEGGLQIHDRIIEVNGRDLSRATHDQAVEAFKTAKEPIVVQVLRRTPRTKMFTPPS

T4: ARHGAP21, Q5T5U3
T4 sequence (Q5T5U3 45-169, limits assumed, looked up): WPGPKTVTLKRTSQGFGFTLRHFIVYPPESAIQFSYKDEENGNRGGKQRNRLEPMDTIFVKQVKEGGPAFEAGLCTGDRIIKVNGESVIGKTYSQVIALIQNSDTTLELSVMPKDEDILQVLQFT

T5: LIN7C, Q9NUP9
T5 sequence (Q9NUP9 88-185, limits assumed, looked up): T1 sequence (Q9HAP6 88-185, limits assumed, looked up) with A2S, D13E, V35I, V40I, Q65H, S79K, R89K, A96S

T6: SNTB1, Q13884
T6 sequence (Q13884 107-205, limits assumed, looked up): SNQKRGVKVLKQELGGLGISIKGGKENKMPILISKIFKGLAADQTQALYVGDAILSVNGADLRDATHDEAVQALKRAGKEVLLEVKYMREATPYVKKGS

T7: APBA2_2, Q99767
T7 sequence (Q99767 654-744, limits assumed, looked up): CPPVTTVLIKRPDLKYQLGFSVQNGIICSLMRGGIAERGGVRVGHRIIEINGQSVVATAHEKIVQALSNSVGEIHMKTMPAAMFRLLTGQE

T8: LNX2_3, Q8N448
T8 sequence (Q8N448 463-564, limits assumed, looked up): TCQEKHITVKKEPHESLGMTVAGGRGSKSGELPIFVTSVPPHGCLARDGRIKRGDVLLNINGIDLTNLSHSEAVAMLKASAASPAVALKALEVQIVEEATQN

T9: HTRA4, P83105
T9 sequence (P83105 378-476, limits assumed, looked up): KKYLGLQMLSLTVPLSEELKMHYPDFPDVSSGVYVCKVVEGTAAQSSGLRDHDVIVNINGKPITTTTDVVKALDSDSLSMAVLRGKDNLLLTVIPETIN

T10: SNTG2, Q9NY99
T10 sequence (Q9NY99 68-166, limits assumed, looked up): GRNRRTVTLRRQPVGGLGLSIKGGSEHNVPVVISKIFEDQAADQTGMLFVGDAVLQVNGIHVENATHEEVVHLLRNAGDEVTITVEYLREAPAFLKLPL

T11: NHERF3_4, Q5T2W1
T11 sequence (Q5T2W1 373-468, limits assumed, looked up): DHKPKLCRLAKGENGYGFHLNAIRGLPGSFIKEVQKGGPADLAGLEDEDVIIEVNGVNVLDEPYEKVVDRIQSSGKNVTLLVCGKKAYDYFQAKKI

T12: GRIP1_4, Q9Y3R0
T12 sequence (Q9Y3R0 467-571, limits assumed, looked up): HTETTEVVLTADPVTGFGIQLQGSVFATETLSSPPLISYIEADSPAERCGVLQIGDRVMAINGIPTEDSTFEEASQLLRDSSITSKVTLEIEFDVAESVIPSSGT


Each binder was assayed against T1, LIN7B, Q9HAP6 (assay: holdup assay). Conditions: plain residues with an end cap or a label only (N-terminal biotin on a linker: ado-ado).
Parameters: key: below the threshold = too weak to quantify, mostly under pKd 3.1 to 4
LPHPHSTTRV [NLGN2, Q8NFZ4] showed a pKd of 3.58.
PRISRSQSEL [CCDC134, Q9H6E4] gave a pKd of 3.62.

These binders were tested against DLG1_2, Q12959 (assay: holdup assay). Conditions: plain residues with an end cap or a label only (N-terminal biotin on a linker: ado-ado).
DLG1_2, Q12959, sequence (Q12959 314-412): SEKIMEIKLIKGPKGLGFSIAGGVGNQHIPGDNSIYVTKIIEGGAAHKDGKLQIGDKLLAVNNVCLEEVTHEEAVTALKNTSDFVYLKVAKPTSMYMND
Parameters: key: below the threshold = too weak to quantify, mostly under pKd 3.1 to 4
Binder LPHPHSTTRV [NLGN2, Q8NFZ4] has a pKd of 4.07.
In the case of PRISRSQSEL [CCDC134, Q9H6E4], the pKd is reported as “below the threshold”.

Each binder was assayed against DLG1_3, Q12959 (assay: holdup assay). Conditions: plain residues with an end cap or a label only (N-terminal biotin on a linker: ado-ado).
DLG1_3, Q12959, sequence (Q12959 457-571): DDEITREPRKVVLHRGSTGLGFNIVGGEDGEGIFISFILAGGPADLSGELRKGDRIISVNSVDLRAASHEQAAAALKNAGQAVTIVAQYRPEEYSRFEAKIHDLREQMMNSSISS
Parameters: key: below the threshold = too weak to quantify, mostly under pKd 3.1 to 4
LPHPHSTTRV [NLGN2, Q8NFZ4] showed a pKd of 4.13.
PRISRSQSEL [CCDC134, Q9H6E4] was tested, and the pKd was “below the threshold”.

The binders below were run against SCRIB_2, Q14160 (assay: holdup assay). Conditions: plain residues with an end cap or a label only (N-terminal biotin on a linker: ado-ado).
SCRIB_2, Q14160, sequence (Q14160 857-960): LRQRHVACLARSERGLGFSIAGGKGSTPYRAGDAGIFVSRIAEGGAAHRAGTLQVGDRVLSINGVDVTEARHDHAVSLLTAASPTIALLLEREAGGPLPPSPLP
Parameters: key: below the threshold = too weak to quantify, mostly under pKd 3.1 to 4
In the case of LPHPHSTTRV [NLGN2, Q8NFZ4], the pKd is reported as “below the threshold”.
PRISRSQSEL [CCDC134, Q9H6E4] was tested, and the pKd was “below the threshold”.

These binders were tested against Inadl_3, Q8NI35 (assay: holdup assay). Conditions: plain residues with an end cap or a label only (N-terminal biotin on a linker: ado-ado).
Inadl_3, Q8NI35, sequence (Q8NI35 359-469): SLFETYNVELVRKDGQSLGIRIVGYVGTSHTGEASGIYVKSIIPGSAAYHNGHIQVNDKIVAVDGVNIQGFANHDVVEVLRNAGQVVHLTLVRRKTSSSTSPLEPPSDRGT
Parameters: key: below the threshold = too weak to quantify, mostly under pKd 3.1 to 4
For LPHPHSTTRV [NLGN2, Q8NFZ4], the pKd was “below the threshold”.
In the case of PRISRSQSEL [CCDC134, Q9H6E4], the pKd is reported as “below the threshold”.

These binders were tested against LNX1_3, Q8TBB1 (assay: holdup assay). Conditions: plain residues with an end cap or a label only (N-terminal biotin on a linker: ado-ado).
LNX1_3, Q8TBB1, sequence (Q8TBB1 500-596): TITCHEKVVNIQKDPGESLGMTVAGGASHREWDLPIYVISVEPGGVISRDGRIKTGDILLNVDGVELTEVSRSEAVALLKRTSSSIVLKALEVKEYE
Parameters: key: below the threshold = too weak to quantify, mostly under pKd 3.1 to 4
LPHPHSTTRV [NLGN2, Q8NFZ4] was tested, and the pKd was “below the threshold”.
For PRISRSQSEL [CCDC134, Q9H6E4], the pKd was “below the threshold”.

Each binder was assayed against DLG4_3, P78352 (assay: holdup assay). Conditions: plain residues with an end cap or a label only (N-terminal biotin on a linker: ado-ado).
DLG4_3, P78352, sequence (P78352 306-403): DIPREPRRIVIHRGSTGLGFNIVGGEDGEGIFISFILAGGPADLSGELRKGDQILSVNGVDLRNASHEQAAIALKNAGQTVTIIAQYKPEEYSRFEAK
Parameters: key: below the threshold = too weak to quantify, mostly under pKd 3.1 to 4
LPHPHSTTRV [NLGN2, Q8NFZ4] showed a pKd of 3.82.
PRISRSQSEL [CCDC134, Q9H6E4] was tested, and the pKd was “below the threshold”.

Each binder was assayed against T2, PDZD2_2, O15018 (assay: holdup assay). Conditions: plain residues with an end cap or a label only (N-terminal biotin on a linker: ado-ado).
Parameters: key: below the threshold = too weak to quantify, mostly under pKd 3.1 to 4
For LPHPHSTTRV [NLGN2, Q8NFZ4], the pKd was “below the threshold”.
PRISRSQSEL [CCDC134, Q9H6E4] was tested, and the pKd was 3.66.

These binders were tested against FRMPD2_1, Q68DX3 (assay: holdup assay). Conditions: plain residues with an end cap or a label only (N-terminal biotin on a linker: ado-ado).
FRMPD2_1, Q68DX3, sequence (Q68DX3 770-861): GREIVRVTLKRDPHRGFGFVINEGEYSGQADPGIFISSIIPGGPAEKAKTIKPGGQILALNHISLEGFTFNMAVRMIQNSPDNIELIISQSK
Parameters: key: below the threshold = too weak to quantify, mostly under pKd 3.1 to 4
For LPHPHSTTRV [NLGN2, Q8NFZ4], the pKd was “below the threshold”.
With PRISRSQSEL [CCDC134, Q9H6E4] the pKd was “below the threshold”.

Each binder was assayed against T3, PDZRN3_1, Q9UPQ7 (assay: holdup assay). Conditions: plain residues with an end cap or a label only (N-terminal biotin on a linker: ado-ado).
Parameters: key: below the threshold = too weak to quantify, mostly under pKd 3.1 to 4
LPHPHSTTRV [NLGN2, Q8NFZ4] was tested, and the pKd was “below the threshold”.
PRISRSQSEL [CCDC134, Q9H6E4] was tested, and the pKd was 3.65.

These binders were tested against T4, ARHGAP21, Q5T5U3 (assay: holdup assay). Conditions: plain residues with an end cap or a label only (N-terminal biotin on a linker: ado-ado).
Parameters: key: below the threshold = too weak to quantify, mostly under pKd 3.1 to 4
LPHPHSTTRV [NLGN2, Q8NFZ4] showed a pKd of 3.71.
In the case of PRISRSQSEL [CCDC134, Q9H6E4], the pKd is reported as “below the threshold”.

Each binder was assayed against T5, LIN7C, Q9NUP9 (assay: holdup assay). Conditions: plain residues with an end cap or a label only (N-terminal biotin on a linker: ado-ado).
Parameters: key: below the threshold = too weak to quantify, mostly under pKd 3.1 to 4
LPHPHSTTRV [NLGN2, Q8NFZ4] was tested, and the pKd was “below the threshold”.
With PRISRSQSEL [CCDC134, Q9H6E4] the pKd was “below the threshold”.

Each binder was assayed against LAP2, Q96RT1 (assay: holdup assay). Conditions: plain residues with an end cap or a label only (N-terminal biotin on a linker: ado-ado).
LAP2, Q96RT1, sequence (Q96RT1 other isoform, or with tags, fused parts or gaps): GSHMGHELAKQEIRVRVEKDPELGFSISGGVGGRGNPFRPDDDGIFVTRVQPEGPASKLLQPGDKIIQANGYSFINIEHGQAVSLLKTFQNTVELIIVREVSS
Parameters: key: below the threshold = too weak to quantify, mostly under pKd 3.1 to 4
For LPHPHSTTRV [NLGN2, Q8NFZ4], the pKd was “below the threshold”.
In the case of PRISRSQSEL [CCDC134, Q9H6E4], the pKd is reported as “below the threshold”.

These binders were tested against MAGI2_4, Q86UL8 (assay: holdup assay). Conditions: plain residues with an end cap or a label only (N-terminal biotin on a linker: ado-ado).
MAGI2_4, Q86UL8, sequence (Q86UL8 772-865): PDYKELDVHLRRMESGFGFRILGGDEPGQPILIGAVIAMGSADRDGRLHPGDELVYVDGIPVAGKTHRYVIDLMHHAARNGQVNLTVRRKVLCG
Parameters: key: below the threshold = too weak to quantify, mostly under pKd 3.1 to 4
Binder LPHPHSTTRV [NLGN2, Q8NFZ4] has a pKd of 3.72.
With PRISRSQSEL [CCDC134, Q9H6E4] the pKd was “below the threshold”.

Each binder was assayed against T6, SNTB1, Q13884 (assay: holdup assay). Conditions: plain residues with an end cap or a label only (N-terminal biotin on a linker: ado-ado).
Parameters: key: below the threshold = too weak to quantify, mostly under pKd 3.1 to 4
LPHPHSTTRV [NLGN2, Q8NFZ4] was tested, and the pKd was 4.22.
With PRISRSQSEL [CCDC134, Q9H6E4] the pKd was “below the threshold”.

The binders below were run against IL16_4, Q14005 (assay: holdup assay). Conditions: plain residues with an end cap or a label only (N-terminal biotin on a linker: ado-ado).
IL16_4, Q14005, sequence (Q14005 1229-1329): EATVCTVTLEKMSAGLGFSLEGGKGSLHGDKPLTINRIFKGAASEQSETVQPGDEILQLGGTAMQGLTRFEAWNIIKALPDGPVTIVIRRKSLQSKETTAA
Parameters: key: below the threshold = too weak to quantify, mostly under pKd 3.1 to 4
Work on LPHPHSTTRV [NLGN2, Q8NFZ4] yielded a pKd of 3.7.
Work on PRISRSQSEL [CCDC134, Q9H6E4] yielded a pKd of 3.8.

These binders were tested against T7, APBA2_2, Q99767 (assay: holdup assay). Conditions: plain residues with an end cap or a label only (N-terminal biotin on a linker: ado-ado).
Parameters: key: below the threshold = too weak to quantify, mostly under pKd 3.1 to 4
With LPHPHSTTRV [NLGN2, Q8NFZ4] the pKd was “below the threshold”.
With PRISRSQSEL [CCDC134, Q9H6E4] the pKd was “below the threshold”.

These binders were tested against Inadl_6, Q8NI35 (assay: holdup assay). Conditions: plain residues with an end cap or a label only (N-terminal biotin on a linker: ado-ado).
Inadl_6, Q8NI35, sequence (Q8NI35 1058-1167): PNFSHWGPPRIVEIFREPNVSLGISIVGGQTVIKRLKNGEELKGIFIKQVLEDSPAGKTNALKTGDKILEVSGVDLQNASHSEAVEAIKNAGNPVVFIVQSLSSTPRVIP
Parameters: key: below the threshold = too weak to quantify, mostly under pKd 3.1 to 4
For LPHPHSTTRV [NLGN2, Q8NFZ4], the pKd was “below the threshold”.
PRISRSQSEL [CCDC134, Q9H6E4] was tested, and the pKd was “below the threshold”.

Each binder was assayed against TJP1_3, Q07157 (assay: holdup assay). Conditions: plain residues with an end cap or a label only (N-terminal biotin on a linker: ado-ado).
TJP1_3, Q07157, sequence (Q07157 416-512): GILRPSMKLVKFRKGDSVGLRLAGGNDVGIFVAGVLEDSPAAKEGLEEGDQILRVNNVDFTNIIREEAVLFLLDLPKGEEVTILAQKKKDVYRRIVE
Parameters: key: below the threshold = too weak to quantify, mostly under pKd 3.1 to 4
LPHPHSTTRV [NLGN2, Q8NFZ4] was tested, and the pKd was “below the threshold”.
In the case of PRISRSQSEL [CCDC134, Q9H6E4], the pKd is reported as “below the threshold”.

Each binder was assayed against T8, LNX2_3, Q8N448 (assay: holdup assay). Conditions: plain residues with an end cap or a label only (N-terminal biotin on a linker: ado-ado).
Parameters: key: below the threshold = too weak to quantify, mostly under pKd 3.1 to 4
LPHPHSTTRV [NLGN2, Q8NFZ4] was tested, and the pKd was “below the threshold”.
With PRISRSQSEL [CCDC134, Q9H6E4] the pKd was “below the threshold”.

These binders were tested against T9, HTRA4, P83105 (assay: holdup assay). Conditions: plain residues with an end cap or a label only (N-terminal biotin on a linker: ado-ado).
Parameters: key: below the threshold = too weak to quantify, mostly under pKd 3.1 to 4
LPHPHSTTRV [NLGN2, Q8NFZ4] showed a pKd of 3.97.
In the case of PRISRSQSEL [CCDC134, Q9H6E4], the pKd is reported as “below the threshold”.

Each binder was assayed against T10, SNTG2, Q9NY99 (assay: holdup assay). Conditions: plain residues with an end cap or a label only (N-terminal biotin on a linker: ado-ado).
Parameters: key: below the threshold = too weak to quantify, mostly under pKd 3.1 to 4
With LPHPHSTTRV [NLGN2, Q8NFZ4] the pKd was 4.16.
PRISRSQSEL [CCDC134, Q9H6E4] was tested, and the pKd was “below the threshold”.

The binders below were run against T11, NHERF3_4, Q5T2W1 (assay: holdup assay). Conditions: plain residues with an end cap or a label only (N-terminal biotin on a linker: ado-ado).
Parameters: key: below the threshold = too weak to quantify, mostly under pKd 3.1 to 4
In the case of LPHPHSTTRV [NLGN2, Q8NFZ4], the pKd is reported as “below the threshold”.
In the case of PRISRSQSEL [CCDC134, Q9H6E4], the pKd is reported as “below the threshold”.

These binders were tested against T12, GRIP1_4, Q9Y3R0 (assay: holdup assay). Conditions: plain residues with an end cap or a label only (N-terminal biotin on a linker: ado-ado).
Parameters: key: below the threshold = too weak to quantify, mostly under pKd 3.1 to 4
With LPHPHSTTRV [NLGN2, Q8NFZ4] the pKd was “below the threshold”.
In the case of PRISRSQSEL [CCDC134, Q9H6E4], the pKd is reported as “below the threshold”.

The binders below were run against LNX1_2, Q8TBB1 (assay: holdup assay). Conditions: plain residues with an end cap or a label only (N-terminal biotin on a linker: ado-ado).
LNX1_2, Q8TBB1, sequence (Q8TBB1 371-470): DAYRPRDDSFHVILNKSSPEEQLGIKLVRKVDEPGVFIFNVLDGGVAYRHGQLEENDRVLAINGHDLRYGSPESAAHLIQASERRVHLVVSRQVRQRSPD
Parameters: key: below the threshold = too weak to quantify, mostly under pKd 3.1 to 4
In the case of LPHPHSTTRV [NLGN2, Q8NFZ4], the pKd is reported as “below the threshold”.
In the case of PRISRSQSEL [CCDC134, Q9H6E4], the pKd is reported as “below the threshold”.
